Assay results reported in the nanobody polyreactivity screen of Harvey et al. (2022).

Assay: yeast display, Sf9 membrane polyspecificity reagent, FACS + sequencing; frameworks hold sequencing errors
How it was run: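 A synthetic nanobody library was expressed on Saccharomyces cerevisiae BJ5465 by galactose induction for 36–48 hours. The library was stained for 1 hour at 4 °C with 10% biotinylated, detergent-solubilized Sf9 membrane reagent and enriched with streptavidin microbeads before FACS. Low and high (top ~1%) gates were set on anti-HA fluorescence for expression and streptavidin fluorescence for reagent binding, and each polyreactivity label reflects the gate of origin.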

Sequence | polyreactivity (PSR sort gate)
QVQLVESGGGLVQAGGSLRLSCAASGSTLSNNAMGWYRQAPGKERELVAAINDSAGSTYYADSVKGRFTISRDNAKNTVYLQMNSLKPEDTAVYYCAAKNYGRSFYYGYDYWEQGTQVTVSS | low polyreactivity
QVQLVESGGGLVQAGGSLRLSCAASGSTLSVYAKGSYIQAPGKEREFVASISSSVGRTFYADSVKGRFTISRDNANNTVYLQMNSLNQEDTAVYYCAARRRTFYASSSAINGYDYWRQGTQVTVSS | high polyreactivity
QVQLVESGGGLVQAGGSLRLSCAASGSTLTSNAIGWYRQAPGKERELVAAIRSGGSTNYADSVKGRFTISRDNAKNTVYLQMYSLNPEDTAVYYCNAEEKVTYSASYYWVYDAMDHWGQGTQVTVSS | low polyreactivity
QVQLVESGGGLVQAGGSLRLSCAASGSTLVFYAMGWYRQAPGKERELVAAITRSGGSTYYADSVKGRFTISRDNEKNTVYLQMNSLKPEDTAFYYCAADERYIYERDSWGQGTQVTVSS | low polyreactivity
QVQLVESGGGLVQAGGSLRLSCAASGSTLVLNALGWYRQAPGKERELVAAITISGDTTYYADSVKGRFTISRDNAKNTVYLQMNSLKPEDTAVYYCAAVVSTVDGMEYWGQGTQVTVSS | low polyreactivity
QVQLVESGGGLVQAGGSLRLSCAASGSTLVYNDMGWYRQAPGKEREFVAAIRSNDGSTYYADSVKGRFTISRDNAKNTVYLQMNSLKPEDTAVYYCAARYPARGTLYYWGQGTQVTVSS | low polyreactivity
QVQLVESGGGLVQAGGSLRLSCAASGSTLWGYAMGWYRPAPGKERELVAAITSSGGITYYADSVKGRFTISRDNAKNTVYLQMNSLKPEDTAVYYCAVDYYVVGWTYLYYYRGQGTQVTVSS | low polyreactivity
QVQLVESGGGLVQAGGSLRLSCAASGSTLWGYVMGWYRQAPGKERELVAVISKSGGSTYYADSVKGRFTISRDNAKNTVYLQMNSLKPEDTAVYYCATRGPYRSDWGQGTQVTVSS | high polyreactivity
QVQLVESGGGLVQAGGSLRLSCAASGSTLWRSAMGWYRQAPGKERELVAGISRGGGSTYYADSVKGRFTISRDNAKNTVYLQMHSLKPEDTAVYYCATPVYQVRGAFDYWGQGTQVTVSS | low polyreactivity
QVQLVESGGGLVQAGGSLRLSCAASGSTLWYNAMGWYRQAPGKERELVASITSDGGSSTYADSVKGRFTISRDNAKNTVYLQMNSQKPEDTAVYYCAADWPIVQYDYWGQGTQVTVSS | low polyreactivity
QVQLVESGGGLVQAGGSLRLSCAASGSTLYFYAMGWYRQAPGKERELVADITRSGGSTYYADSVKGRFTISRDNAKNTVYLQMNSLKPEDTAVYYCNADDWSTYWYGYPGYDYWGQGTQVTVSS | high polyreactivity
QVQLVESGGGLVQAGGSLRLSCAASGSTLYGYAMGWYRQAPGNERELVAAISVSGGRTYYADSVKGRFTISRDNAKNTVYLQMNSLKPEDTAVYYCAAYGTTRMDYWGQGTQVTVSS | high polyreactivity
QVQLVESGGGLVQAGGSLRLSCAASGSTLYPNAMGWYRHAPGKERELVAAISSGSSTYADSVKGRFTISRDNAKNTVYLQMNSLKPEDTAVYYCNADSRIHYDYWGQGTQLTVSS | low polyreactivity
QVQLVESGGGLVQAGGSLRLSCAASGSTLYPNAMGWYRQAPGKERELVAAISSGSSTYADSVKGRFTISRDNAKNTVYLQMNRLKPEDTAVYYCNADSRIHYDYWGQGTQVTVSS | low polyreactivity
QVQLVESGGGLVQAGGSLRLSCAASGSTLYQYTMGWYRQAPGKERELVAGISRRGGSTYYADSVKGRFTISRDNAKNTVYLQMNSLKPEDTAVYYCAKRPPYIAWYGYNGDYWGQGTQVTVSS | high polyreactivity
QVQLVESGGGLVQAGGSLRLSCAASGSTLYRYAMGWYRQAAGKERELVATITRSGGSTYYADSVKGRFTISRDNAKNTVYLQMNSLKPEDTAVYSCAAYRKVGGFSRGDYWGQGTQVTVSS | high polyreactivity
QVQLVESGGGLVQAGGSLRLSCAASGSTLYSYAMGWYRQAPGKERELVAAISIGDSTNYADSVKGRFTISRDNAKNTVYLQMNSLKPVDTAVYYCAADWDESYSYRRYRHYDYWGQGTQVSVSS | low polyreactivity
QVQLVESGGGLVQAGGSLRLSCAASGSTLYTYAMGWYRPAPGKERELVAAIRLSGGRTYYADSVKGRFTISRDNAKNTVYLQMNSLKPEDTAVYYCAVDWSYSRYDYWGQGTQVTVSS | high polyreactivity
QVQLVESGGGLVQAGGSLRLSCAASGSTLYTYAMRWYRQAPGKERELVAAIRLSGGRTYYADSVKGRFTISRDNAKNTVYLQMYSLKPEDTAVYDFAVDWSYSRYDYWGQGTQVTVSS | high polyreactivity
QVQLVESGGGLVQAGGSLRLSCAASGSTLYVNAMGLYRQAPGKERELVAAISWRGDRTYYADSVKGRFTISRDNAKNNVYLQMNSLKPEDTAVYYCAKDYWWKGTTLYYNLDYWGQGTQVTVSS | high polyreactivity
QVQLVESGGGLVQAGGSLRLSCAASGSTLYWYAMGWYRQAPGKERELVARITVSGGSTSYADSVKGRFTISRYNAKNTVYLQMNSLKPEDTAVYYCAARRYWTGYYYWGQGTQVTVSS | high polyreactivity
QVQLVESGGGLVQAGGSLRLSCAASGSTLYYNAMGWYRQAPGKERELVAAISWSGGSTYYADSVKGRFTISRDNAKNTVYLQMNSLKPEDTAVYYCAADQSTVLDVGSWGQGTQVTVSS | low polyreactivity

Sequence | polyreactivity (PSR sort gate)
QVQLVESGGGLVQAGGSLRLSCAASGSTLYYNAMGWYRQAPGKESELVAAISWSGGSTYYADSVKGRFTISRDNAKNTVYLQMNSLKPEDTAVYYCAADQSTVLDVGSWGQGTQVTVSS | low polyreactivity
QVQLVESGGGLVQAGGSLRLSCAASGSTRGYAMGWYRQAPGKEREMVAAIRSSGSTNYADSVKGRFTISRDNAKNTVYLQMNSLKPEDTAVYFCATDGHYLYSWYKYDYWGQGTQVTVSS | low polyreactivity
QVQLVESGGGLVQAGGSLRLSCAASGSTRYYAMGWYRHAPGKERELVASITTIGGSTSYADSVKGRFTISRDNAKNTVYLQMNSLKPEDTAVYYCATRSLVYSARAAGLIQFDHWGQGTQVNVSS | low polyreactivity
QVQLVESGGGLVQAGGSLRLSCAASGSTSDINAMGWYRQAPGKERELVAVITFSGGSTNYADSVKGRFTISRDNAKNTVYLQMHSLKPEDTAVYYCNADTLTTTRRFNPYDYWGQGTQVTVSS | low polyreactivity
QVQLVESGGGLVQAGGSLRLSCAASGSTSDINAMGWYRQARGKEWQLVAVITDSSNTDYADSVKGRFTISRDNAKNTVYLEMNSLKPEETAVYYCAADRDEPDPYDYWGPGTQVTVSS | low polyreactivity
QVQLVESGGGLVQAGGSLRLSCAASGSTSGPYAMGWYRTAPGKERELVATISWIGDRTYYADSVKGRFTISRDNAKNTIYLQMNSLKPEDTAVYYCNDDYRGYANLEGDYWGQGTQVTVSS | low polyreactivity
QVQLVESGGGLVQAGGSLRLSCAASGSTSIEYGMGWYRQAPGKERELVATISIGSSTNYADSVKGRFTISRDNAKNTVYLQMNSLKPEDTAVYYCAADAYLDYYTGYYYQEYDSWGQGTQVTVSS | low polyreactivity
QVQLVESGGGLVQAGGSLRLSCAASGSTSILYAMGWYRQAPGKERELVAAISRSGGSTYYADSVKGRFTISRDNAKNTVYLQMNSLKPEDTAVYYCAAQWVYQYGFNYWGQGTQVTVSS | high polyreactivity
QVQLVESGGGLVQAGGSLRLSCAASGSTSKNYAMGWYRQAPGKERELVAAITRGTSTNYADSVKGRFTISRDNAKNTVYLQMNSLKPEDTAVYYCNVERHRVWDYQWREEDDYWGQGTQVTVSS | low polyreactivity
QVQLVESGGGLVQAGGSLRLSCAASGSTSPAYAMGWYRQAPGKERELVAVITGSGASTYYADSVKGRFTISRDNAKNTVYLQMNSLKPEDTAVYYCAADVGFGVVFYDYWGQGTQVTVSS | low polyreactivity
QVQLVESGGGLVQAGGSLRLSCAASGSTSQINAMGWYRQAPGKERELVAAITWSTGTTYYADSVKGRFTISRDNAKNTVYLQMTSLKPEDTAVYYCAAERAILSSDKQSLWRFDYWGQGTQVTVSS | low polyreactivity
QVQLVESGGGLVQAGGSLRLSCAASGSTSQLYAMGRYRQAPGKERELVAAITVSGDSTYYADSVKGRFTISRDNAKNTVYLQMNSLKPEDTAVYYCAADVMVQTVPGGYDDWGQGTQVTVSS | low polyreactivity
QVQLVESGGGLVQAGGSLRLSCAASGSTSQRYSMGWYRQAPAKEREVVAGITTSGGRTYYADSVKGRFTISRDNAKNTVYLQMNSLKPEDTAVYYCAARTQIWKYRGYYSWGQGTQVTVSS | high polyreactivity
QVQLVESGGGLVQAGGSLRLSCAASGSTSRINAMGWYRQAPGKERELVAGIRANGGRTYYADSVKGRFTISRDNAKNTVYLQMNSLKPEDTAVYYCNKRNWPAEDSWGQGTQVTVSS | high polyreactivity
QVQLVESGGGLVQAGGSLRLSCAASGSTSRTYAMGWYRQAPGKERELVAAINSGGTTYYADSVKGRFTISRDNAKNTVYLQMNSLKPEDTAVYYCARRDFWWSRRIFGYWGQGTQVTVSS | high polyreactivity
QVQLVESGGGLVQAGGSLRLSCAASGSTSRYALGWYIQAPGNERELVAAITRSGGTTYYADSVKGRFTISRDNAKNTVYLQMNSLIPEDTAVYYCATSDRQVKYDYWGQGTQVTVSS | low polyreactivity
QVQLVESGGGLVQAGGSLRLSCAASGSTSRYNVMGWYRQAPGKERELVAAISSRGVSTYYADSVKGRFTISRDNAKKTVYLQMNSLKPEDTAVYYCAARYGGPSHYGYWGQGTQVTVSS | high polyreactivity
QVQLVESGGGLVQAGGSLRLSCAASGSTSSPNAMGWNTQAPGKEREFVAAISRSGGSTYYADSVKGRFTISRDNAKNTVYLQMNSLKPEDSAVYYCAATVTVFYTRYYYWGQGTHVTVSS | high polyreactivity
QVQLVESGGGLVQAGGSLRLSCAASGSTSSSKAMGWYREAPGKERELVATITNGSGTSYADSVKGRFTISRDNAKNTVYLQMNSLKPEDTAVYYCYVSSLNSYTSGTTYWGLDYWGQGTQVTVSS | low polyreactivity
QVQLVESGGGLVQAGGSLRLSCAASGSTSSVYDMGWYRQEPGKERELVAGIDYSAGSTYYADSVKGRFTISRDNAKNTVYLQMNSLKPEDTAVYYCDADAAYYSGYDYWGQGTQVTVSS | low polyreactivity
QVQLVESGGGLVQAGGSLRLSCAASGSTSTGNAMGWYRKAPGKERELVAAITSGGNTYYADSVKGRFTISRDNAKNTVYLQMNSLKPEDTAVYYCAAASPGPWRYDYWGQGTQVTVSS | high polyreactivity
